Measurements reported in patent US11485792B2, “Antibodies, uses thereof and conjugates thereof” (Polytherics Limited, priority 2016, dated 2022).

B1: AB-P2: prior art anti-PSMA antibody, heavy and light chain SEQ ID No 37 and 38 (antibody, V domains shown)
VH: MELGLRWVLLVALLRGVQCQVQLVESGGGVVQPGRSLRLSCAASGFTFSNYVMHWVRQAPGKGLEWVAIIWYDGSNKYYADSVKGRFTISRDNSKNTLYLQMNSLRAEDTAVYYCAGGYNWNYEYHYYGMDVWGQGTTVTVSS
VL: MRVPAQLLGLLLLCFPGARCDIQMTQSPSSLSASVGDRVTITCRASQGITNYLAWFQQKPGKAPKSLIYAASSLQSGVPSKFSGSGSGTDFSLTISSLQPEDFATYYCQQYNSYPITFGQGTRLEIK
B2: ADC 34 (conjugate)
heavy: QVQLVESGGGVVQPGRSLRLSCAASGFTFSNYVMHWVRQAPGKGLEWVAIIWYDGSNKYYADSVKGRFTISRDNSKNTLYLQMNSLRAEDTAVYYCAGGYNWNYEYHYYGMDVWGQGTTVTVSS
light: DIQMTQSPSSLSASVGDRVTITCRASQGITNYLAWFQQKPGKAPKSLIYAASSLQSGVPSKFSGSGSGTDFSLTISSLQPEDFATYYCQQYNSYPITFGQGTRLEIK
modifications: non-natural residues

What was measured:
[1] = Heat stress test with SEC analysis of aggregation; format: physicochemical
Description: Antibody samples (0.5 mg/mL in PBS) were incubated at 75° C. for 30 min followed by incubation in an ice-bath for 5 min prior to being analysed for their extent of aggregation. Analysis of antibody solutions was carried out by Size Exclusion Chromatography (SEC) and by turbidity measurements.
SEC was performed using a TOSOH Bioscience TSK gel Super SW 3000 column. UV absorbance at 280 nm was monitored during an isocratic elution with a 0.2 M Potassium phosphate buffer, pH 6.8 (0.2 M potassium chloride and 15% isopropanol). The elution times and number of peaks indicate whether the sample contains aggregated, degraded or native antibody. The % area under the curve (Abs280) was used to determine the quantity of each species present in the SEC analysis.

[2] = Fluorescence-based thermal-shift assay (Sypro Orange); format: physicochemical
Description: Antibody was diluted to 1.5 mg/mL with DPBS, pH 7.1-7.5, and the concentration determined by measuring OD at 280 nm using a Nanodrop instrument. SEC analysis was carried out prior to thermal-shift analysis to confirm that over 99% of each antibody was present in their native form.
An RT-PCR instrument (StepOnePlus, Applied Biosystems) was set-up for a fluorescence-based thermal-shift assay using Sypro Orange dye as a fluorescent reporter. The assay was set-up in a PCR 96 well plate with five replicates per antibody sample and a final reaction volume of 20 μL per well. 13.5 μL of DPBS was pipetted in each well followed by the addition of 4 μL of antibody. […] Fluorescence data was collected throughout the temperature ramp, using an excitation filter at 470 nm and emission filter at 610 nm. […] The melting curves generated by the instrument software during the thermal unfolding of the antibodies result from the plotting of fluorescence vs. temperature. The melting temperature (Tm), is the temperature at which half of the antibody molecules are unfolded, (indicated by a 50% increase in fluorescence), and can be determined from the inflection point of the melting curve. The Tms are conventionally calculated by plotting a derivative plot. This is the change in fluorescence divided by the […] (the change rate) plotted on the Y-axis versus temperature on the X-axis. […]

PC-3 cells = assay: In vitro cell viability assay (CellTiter Glo), PC-3 (PSMA-negative control); format: cell-based; conditions: Example 16; PSMA-negative PC-3 (negative control), 96 h
Text: Loss of tumour cell viability following treatment with cytotoxic drugs or ADCs in vitro can be measured by growing cell lines in the presence of increasing concentrations of drugs or ADCs and quantifying the loss of proliferation or metabolic activity using CellTiter Glo® Luminescence reagent (Promega Corp. Technical Bulletin TB288; Lewis Phillips G. D, Cancer Res 2008; 68:9280-9290). The protocol describes cell seeding, drug treatment and determination of the cell viability in reference to untreated cells based on ATP synthesis, which is directly related to the number of cells present in the well.
PSMA-positive LNCaP (clone FGC) and C4-2 cells, as well as PSMA-negative PC-3 cells were detached with TrypLE and resuspended in complete medium. Cells were counted using disposable Neubauer counting chambers and cell density adjusted to 10×10^4 cells/mL for LNCaP, 2×10^4 cells/mL for C4-2 and 1×10^4 cells/mL for PC-3 respectively. […]
The cell viability assay was carried out using the Cell-Titer Glo® Luminescence reagent, as described by the manufacturer's instructions, (Promega Corp. Technical Bulletin TB288; Lewis Phillips G. D, Cancer Res 2008; 68:9280-9290). Luminescence was recorded using a plate reader (e.g. Molecular Devices Spectramax M3 plate reader), and data subsequently analysed using a four parameter non-linear regression model. […]

[3] = post stress test: 0.5 mg/mL in PBS, 75° C. for 30 min, then ice-bath 5 min, SEC

Row | Molecule | Ab in aggregated form (%) [1, 3] [%] | Ab in native conformation (%) [1, 3] [%] | stability in heat stress SEC analysis (in words) ([1]; propensity to aggregate upon heating and cooling) | Tm1 (° C.) ([2]; first transition peak: unfolding of the CH2 and Fab domains) [°C] | Tm2 (° C.) ([2]; second transition peak: unfolding of the CH3 domain) [°C] | IC50 (PC-3 cells) [nM]
1 | B1 | 100 | 0 | less stable than AB-03 | 68.9 ± 0.1 | 75.2 ± 0.1 | –
2 | B2 | – | – | – | – | – | > 50
